Changes are numbered by the printed parent chain. Read-outs that look alike come from different tables or passages of the source.
T1: mouse SIRPα extracellular domain + His-tag (NP_031573) (mouse, UniProt P97797 32-373)
T1 chain: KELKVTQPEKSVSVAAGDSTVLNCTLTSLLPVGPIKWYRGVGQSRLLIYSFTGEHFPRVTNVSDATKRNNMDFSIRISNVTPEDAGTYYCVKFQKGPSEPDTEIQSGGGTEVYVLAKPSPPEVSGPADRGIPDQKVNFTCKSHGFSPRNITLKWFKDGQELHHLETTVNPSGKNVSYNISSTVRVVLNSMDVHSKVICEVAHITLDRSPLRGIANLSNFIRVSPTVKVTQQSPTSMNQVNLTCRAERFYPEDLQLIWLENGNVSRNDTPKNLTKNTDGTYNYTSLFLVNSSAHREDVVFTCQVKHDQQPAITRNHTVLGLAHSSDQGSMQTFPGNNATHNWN

T2: cynomolgus SIRPα extracellular domain + His-tag (NP_001271679) (cynomolgus monkey)
T2 construct: also called CySIRPα NP_001271679; cynoSIRPα
T2 chain: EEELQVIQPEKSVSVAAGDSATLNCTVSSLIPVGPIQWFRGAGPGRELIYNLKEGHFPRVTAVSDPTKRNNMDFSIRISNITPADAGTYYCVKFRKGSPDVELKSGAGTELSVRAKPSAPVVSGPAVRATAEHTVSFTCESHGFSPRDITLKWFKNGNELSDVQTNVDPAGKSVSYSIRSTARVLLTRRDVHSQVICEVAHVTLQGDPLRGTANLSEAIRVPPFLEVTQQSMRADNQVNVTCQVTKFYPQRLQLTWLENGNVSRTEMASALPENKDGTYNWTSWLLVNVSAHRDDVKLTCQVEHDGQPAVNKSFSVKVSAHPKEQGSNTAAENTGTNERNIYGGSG

T3: cynomolgus SIRPγ extracellular domain + His-tag (XP_005568591) (cynomolgus monkey, UniProt Q9P1W8 29-359 (human entry))
T3 construct: also called Cyno SIRPγ; cynoSIRPγ
T3 chain: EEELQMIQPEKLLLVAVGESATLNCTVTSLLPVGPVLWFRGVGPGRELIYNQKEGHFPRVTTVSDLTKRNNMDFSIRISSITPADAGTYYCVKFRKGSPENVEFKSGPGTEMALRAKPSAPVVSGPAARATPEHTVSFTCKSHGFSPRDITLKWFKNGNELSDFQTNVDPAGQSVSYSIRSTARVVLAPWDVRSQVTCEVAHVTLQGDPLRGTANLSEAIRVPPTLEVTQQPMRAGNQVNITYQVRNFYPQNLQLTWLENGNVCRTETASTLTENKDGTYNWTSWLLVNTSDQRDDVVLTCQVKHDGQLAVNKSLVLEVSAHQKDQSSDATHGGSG

T4: cynomolgus SIRPβ1v3 extracellular domain + His-tag (XP_005568593) (cynomolgus monkey)
T4 construct: also called Cyno SIRPβ1v3; cynoSIRPβ1v3
T4 chain: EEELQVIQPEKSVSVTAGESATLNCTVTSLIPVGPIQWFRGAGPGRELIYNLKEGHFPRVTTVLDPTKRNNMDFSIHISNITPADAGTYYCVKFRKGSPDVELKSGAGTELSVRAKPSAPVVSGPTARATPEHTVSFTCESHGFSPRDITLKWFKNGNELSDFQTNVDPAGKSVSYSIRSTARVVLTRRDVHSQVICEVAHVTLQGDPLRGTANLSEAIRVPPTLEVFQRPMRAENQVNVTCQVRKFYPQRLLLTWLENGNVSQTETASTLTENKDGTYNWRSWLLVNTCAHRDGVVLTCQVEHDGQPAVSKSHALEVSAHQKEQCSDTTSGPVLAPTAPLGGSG

T5: cynomolgus SIRPα extracellular domain + His-tag (XP_015313155) (cynomolgus monkey)
T5 construct: also called CySIRPα XP_015313155; cynoSIRPα
T5 chain: T2 chain with A62P, V163F, L185V

T6: cynomolgus SIRPα extracellular domain + His-tag (EGM_02252) (cynomolgus monkey)
T6 construct: also called CySIRPα EGM_02252; cynoSIRPα
T6 chain: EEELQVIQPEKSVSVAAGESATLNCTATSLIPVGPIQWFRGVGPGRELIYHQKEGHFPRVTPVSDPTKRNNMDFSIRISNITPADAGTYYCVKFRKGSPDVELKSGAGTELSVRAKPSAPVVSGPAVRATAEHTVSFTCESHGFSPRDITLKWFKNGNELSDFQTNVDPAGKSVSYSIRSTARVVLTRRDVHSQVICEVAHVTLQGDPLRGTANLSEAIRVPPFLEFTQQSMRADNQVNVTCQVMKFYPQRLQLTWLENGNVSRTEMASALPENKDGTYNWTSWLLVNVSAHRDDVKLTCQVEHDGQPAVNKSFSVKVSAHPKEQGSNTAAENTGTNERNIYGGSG

B1: Antibody G (antibody, human IgG4 S228P, kappa)
heavy: not shown
light: DIVMTQSPLSLPVTPGEPASISCKSSQSLLYSNGYNYLDWYLQRPGQSPQLLIYLGSNRASGVPDRFSGSGSGTDFTLKISRVEAEDVGVFYCMQALQTPLTFGGGTKVEIKRTVAAPSVFIFPPSDEQLKSGTASVVCLLNNFYPREAKVQWKVDNALQSGNSQESVTEQDSKDSTYSLSSTLTLSKADYEKHKVYACEVTHQGLSSPVTKSFNRGEC
B2: Antibody B (antibody, human IgG1, kappa, L234A L235A, V domains shown)
VH: QVQLVQSGAEVKKPGASVKVSCKASGYTFTGNYMHWVRQAPGQGLEWMGWINPNSGGTNYAQKFQGRVTMTRDTSISTAYMELSRLRSDDTAVYYCVSGSGWYENYYYYGMDVWGQGTTVTVSS
VL: DIQMTQSPSSVSASVGDRVTITCRASQGISSWLAWYQQKPGKAPKLLIYAESSLQSGVPSRFSGSGSGTDFTLTISSLQPEDFATYYCQQANSFPLTFGGGTKVEIKR
B3: Antibody A4 (antibody, human IgG1, kappa, L234A L235A, V domains shown)
VH: EVQLVESGGGLVQPGGSLRLSCAASGFTLSSYDMHWVRQAPGKGLEWVSAIGTAGDTYYTGSVKGRFTISRENAKNSLYLQMNSLRAADTAVYYCVRGGVWDDAFDIWGQGTMVTVSS
VL: DIQMTQSPSSLSASVGDRVTITCRASQGINNYAAWFQQKPGKAPKSLIYTASSLHSGVPSKFSGSGSGTDFTLTISSLQPEDFATYYCQQYVSYPYTFGQGTKLEIKR

Columns and labels:
[1] = biological target: T7, human SIRPαV2 extracellular domain + His-tag (CAA71403.1) (human, UniProt P78324 31-373); assay: SPR, Ab captured, ECD-His analyte
T7 construct: also called hSIRPαV2; HuSIRPαV2
T7 sequence (P78324 other isoform, or with tags, fused parts or gaps): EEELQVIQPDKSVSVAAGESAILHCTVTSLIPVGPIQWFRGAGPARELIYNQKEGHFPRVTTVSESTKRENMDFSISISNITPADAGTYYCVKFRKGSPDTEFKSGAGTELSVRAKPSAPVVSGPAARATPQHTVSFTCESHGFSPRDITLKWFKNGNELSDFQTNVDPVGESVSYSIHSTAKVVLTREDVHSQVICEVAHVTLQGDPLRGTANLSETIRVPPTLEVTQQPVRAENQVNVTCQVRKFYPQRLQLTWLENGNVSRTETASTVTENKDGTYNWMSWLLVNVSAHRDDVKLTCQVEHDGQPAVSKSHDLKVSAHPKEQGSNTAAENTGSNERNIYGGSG
Procedure, shortened: (§1)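 SPR; Ab capture surface, ethanolamine-deactivated (1M, 420 s, 10 μl/min). Analyte: SIRP ECD+His, 2-fold dilution series in 1×HBS-EP+. Inject 300 s @ 30 μl/min; dissoc. 600 s.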

[2] = biological target: T8, human SIRPβL/SIRPβ1v3 extracellular domain + His-tag (NP_001129316.1) (human, UniProt Q5TFQ8 30-371); assay: SPR, Ab captured, ECD-His analyte
T8 construct: also called hSIRPβ1v3; HuSIRPβ1v3
T8 sequence (Q5TFQ8 other isoform, or with tags, fused parts or gaps): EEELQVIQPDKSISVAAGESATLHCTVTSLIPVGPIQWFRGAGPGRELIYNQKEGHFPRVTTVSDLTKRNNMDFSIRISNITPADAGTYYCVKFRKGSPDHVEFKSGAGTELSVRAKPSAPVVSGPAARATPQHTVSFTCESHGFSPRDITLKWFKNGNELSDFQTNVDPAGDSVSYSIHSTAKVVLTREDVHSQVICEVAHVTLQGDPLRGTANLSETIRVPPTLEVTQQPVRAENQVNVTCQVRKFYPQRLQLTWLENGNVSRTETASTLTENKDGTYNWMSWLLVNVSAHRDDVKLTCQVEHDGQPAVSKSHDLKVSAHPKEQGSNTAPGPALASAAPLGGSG
Procedure, shortened: as §1

[3] = biological target: T9, human SIRPβ1 extracellular domain + His-tag (NP_006056.2) (human, UniProt O00241 30-371); assay: SPR, Ab captured, ECD-His analyte
T9 construct: also called hSIRPβ1; HuSIRPβ1
T9 sequence (O00241 other isoform, or with tags, fused parts or gaps): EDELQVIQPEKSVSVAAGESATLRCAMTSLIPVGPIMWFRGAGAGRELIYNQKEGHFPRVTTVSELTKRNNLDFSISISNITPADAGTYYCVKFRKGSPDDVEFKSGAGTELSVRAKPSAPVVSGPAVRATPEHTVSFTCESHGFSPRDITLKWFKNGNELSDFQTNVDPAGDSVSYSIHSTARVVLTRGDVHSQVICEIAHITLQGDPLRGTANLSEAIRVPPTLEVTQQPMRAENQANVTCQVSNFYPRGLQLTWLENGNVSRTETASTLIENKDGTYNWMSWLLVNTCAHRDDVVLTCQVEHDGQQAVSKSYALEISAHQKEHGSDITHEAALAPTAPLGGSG
Procedure, shortened: as §1

[4] = biological target: T10, human SIRPαV1 extracellular domain + His-tag (NP_542970.1) (human, UniProt P78324 31-373); assay: SPR, Ab captured, ECD-His analyte
T10 construct: also called hSIRPαV1; HuSIRPαV1
T10 sequence (P78324 other isoform, or with tags, fused parts or gaps): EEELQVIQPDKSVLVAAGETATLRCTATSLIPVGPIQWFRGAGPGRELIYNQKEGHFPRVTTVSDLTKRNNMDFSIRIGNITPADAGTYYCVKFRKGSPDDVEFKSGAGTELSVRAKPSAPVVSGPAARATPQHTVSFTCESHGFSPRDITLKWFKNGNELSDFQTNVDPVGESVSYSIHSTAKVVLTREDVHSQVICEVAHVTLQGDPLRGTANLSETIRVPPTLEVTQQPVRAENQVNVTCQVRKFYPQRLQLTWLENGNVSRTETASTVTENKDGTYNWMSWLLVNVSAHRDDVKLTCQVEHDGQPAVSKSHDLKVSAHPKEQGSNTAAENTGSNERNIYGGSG
Procedure, shortened: as §1

[5] = biological target: T11, human SIRPγ extracellular domain + His-tag (NP_061026.2) (human, UniProt Q9P1W8 29-360); assay: SPR, Ab captured, ECD-His analyte
T11 construct: also called hSIRPγ; HuSIRPγ
T11 sequence (Q9P1W8 29-360): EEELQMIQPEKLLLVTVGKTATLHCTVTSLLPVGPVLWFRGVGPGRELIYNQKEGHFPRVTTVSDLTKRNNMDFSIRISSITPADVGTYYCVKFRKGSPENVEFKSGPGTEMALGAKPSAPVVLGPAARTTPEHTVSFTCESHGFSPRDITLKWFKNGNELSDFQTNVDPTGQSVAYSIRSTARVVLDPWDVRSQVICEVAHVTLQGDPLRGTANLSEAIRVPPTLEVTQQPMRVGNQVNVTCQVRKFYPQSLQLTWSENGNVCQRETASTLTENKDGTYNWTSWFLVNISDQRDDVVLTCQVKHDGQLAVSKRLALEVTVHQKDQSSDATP
Procedure, shortened: as §1

[6] = biological target: T12, full-length human SIRPγ (NP_061026.2) on cells (human, UniProt Q9P1W8 29-387); assay: flow cytometry, primary human CD3+ T cells
T12 construct: on CHO and Expi-CHO cells; endogenous on primary human CD3+ T cells; also called γ WT
T12 sequence (Q9P1W8 29-387): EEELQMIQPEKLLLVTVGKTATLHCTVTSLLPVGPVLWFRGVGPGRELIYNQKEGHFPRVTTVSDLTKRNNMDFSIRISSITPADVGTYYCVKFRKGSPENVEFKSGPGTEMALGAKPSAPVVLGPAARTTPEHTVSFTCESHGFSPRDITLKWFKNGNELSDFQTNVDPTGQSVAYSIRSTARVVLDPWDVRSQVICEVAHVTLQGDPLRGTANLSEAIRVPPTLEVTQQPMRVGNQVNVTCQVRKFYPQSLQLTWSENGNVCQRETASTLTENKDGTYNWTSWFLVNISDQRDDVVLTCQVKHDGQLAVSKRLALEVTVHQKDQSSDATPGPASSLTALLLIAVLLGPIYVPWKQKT
Description: Antibody binding to primary human T cells expressing endogenous SIRPγ is evaluated by flow cytometry. Human peripheral blood mononuclear cells (PBMCs) are blocked with donkey IgG and incubated on ice with increasing concentrations of antibody for 60 minutes, washed and stained with AF647-conjugated donkey F(ab′)₂ anti-human IgG secondary reagent. […] Cells are washed, fixed, and analyzed by flow cytometry. Median fluorescent intensity of CD3+ gated population is determined and used as a measure of antibody binding.

[7] = biological target: T1, mouse SIRPα extracellular domain + …; assay: SPR, Ab captured, ECD-His analyte
Description: (§2) The binding affinity of anti-SIRPα antibodies to the various SIRPα analytes is determined by surface plasmon resonance (SPR) using a ProteOn XPR36 (Bio-Rad). The running buffer for this experiment and all dilutions (except where stated) are done in 1×HBS-EP+. […] The sensorchip is deactivated with 1M ethanolamine HCl for 420 sec at a flowrate of 10 μl/min.
(§3) The analyte is injected over the captured antibody for 300 sec at a flowrate of 30 μl/min. The dissociation is done for 600 sec. Two-fold serial dilutions of each SIRP protein (Extracellular Domain+His-Tag) are injected as analyte with the highest concentrations indicated in table 36 below.

[8] = biological target: T2, cynomolgus SIRPα extracellular domain + …; assay: SPR, Ab captured, ECD-His analyte
Description: as §2, §3

[9] = biological target: T13, full-length human SIRPβL (NP_001129316.1) on cells (human, UniProt Q5TFQ8 30-398); assay: flow cytometry, U937 SIRPα KO cells
T13 construct: on U937 SIRPα KO cells and Expi-CHO cells; also called βL WT; SIRPβ1v3
T13 sequence (Q5TFQ8 30-398): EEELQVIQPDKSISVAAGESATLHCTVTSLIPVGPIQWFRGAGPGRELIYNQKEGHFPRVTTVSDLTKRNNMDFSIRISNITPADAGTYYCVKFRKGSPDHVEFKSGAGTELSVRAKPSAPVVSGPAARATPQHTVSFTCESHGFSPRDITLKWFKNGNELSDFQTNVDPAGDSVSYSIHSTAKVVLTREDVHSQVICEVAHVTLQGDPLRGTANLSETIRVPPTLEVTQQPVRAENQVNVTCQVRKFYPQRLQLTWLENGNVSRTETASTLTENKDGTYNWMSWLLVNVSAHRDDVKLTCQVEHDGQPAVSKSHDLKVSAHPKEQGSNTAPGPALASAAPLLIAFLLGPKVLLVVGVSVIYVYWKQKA
Description: Antibody binding to cells expressing full-length human SIRPβ1 (NP_006056.2) and SIRPβL (NP_001129316.1) is evaluated by flow cytometry. SIRPβ1- or SIRPβL-expressing U937^{SIRPα KO} cells are blocked with donkey IgG and incubated on ice with increasing concentrations of antibodies for 60 minutes, washed and stained with AF647-conjugated donkey F(ab′)₂ anti-human IgG secondary reagent. Cells are washed, fixed, and analyzed by flow cytometry. Median fluorescent intensity is determined and used as a measure of antibody binding.

[10] = biological target: T3, cynomolgus SIRPγ extracellular domain + …; assay: SPR, Ab captured, ECD-His analyte
Procedure, shortened: as §1

[11] = biological target: T4, cynomolgus SIRPβ1v3 extracellular …; assay: SPR, Ab captured, ECD-His analyte
Procedure, shortened: as §1

[12] = biological target: T5, cynomolgus SIRPα extracellular domain + …; assay: SPR, Ab captured, ECD-His analyte
Procedure, shortened: as §1

[13] = biological target: T6, cynomolgus SIRPα extracellular domain + …; assay: SPR, Ab captured, ECD-His analyte
Procedure, shortened: as §1

[14] = biological target: T8, human SIRPβL/SIRPβ1v3 extracellular …; assay: SPR, Ab captured, ECD-His analyte; remark: listed apart in the source
Procedure, shortened: as §1

[15] = biological target: T9, human SIRPβ1 extracellular domain + …; assay: SPR, Ab captured, ECD-His analyte; remark: listed apart in the source
Procedure, shortened: as §1

[16] = biological target: T11, human SIRPγ extracellular domain + …; assay: SPR, Ab captured, ECD-His analyte; remark: listed apart in the source
Procedure, shortened: as §1

[17] = biological target: full-length human SIRPβ1 D→H on Expi-CHO cells (human, UniProt O00241 30-398); assay: flow cytometry, Expi-CHO cells
full-length human SIRPβ1 D→H on Expi-CHO cells, sequence (O00241 30-398 D130H): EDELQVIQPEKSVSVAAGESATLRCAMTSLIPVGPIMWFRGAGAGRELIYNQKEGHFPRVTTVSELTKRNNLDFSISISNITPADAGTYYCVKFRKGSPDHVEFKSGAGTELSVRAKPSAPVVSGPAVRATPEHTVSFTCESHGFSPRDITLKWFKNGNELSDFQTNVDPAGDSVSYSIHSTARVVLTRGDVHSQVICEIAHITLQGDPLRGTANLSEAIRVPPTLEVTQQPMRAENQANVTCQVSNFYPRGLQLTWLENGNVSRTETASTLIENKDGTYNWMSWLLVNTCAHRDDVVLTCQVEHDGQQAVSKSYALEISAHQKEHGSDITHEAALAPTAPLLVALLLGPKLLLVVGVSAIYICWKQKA
Description: These cells are blocked with donkey IgG and incubated on ice with increasing concentrations of antibodies for 60 minutes, washed and stained with AF647-conjugated donkey F(ab′)₂ anti-human IgG antibodies. Stained cells are washed, fixed, and analyzed by flow cytometry. Median fluorescent intensity is determined and used as a measure of antibody binding.

Kd [1] [nM] | Kd [2] [nM] | Kd [3] [nM] | Kd [4] [nM] | binding result [5] | binding result [6] | binding result [7] | binding result [8] | binding result [9] | binding result [10] | Kd [11] [nM] | Kd [12] [nM] | Kd [13] [nM] | binding result [14] | Kd [15] [nM] | binding result [16] | binding result [17] | Binder
0.465 | 1.27 | 1270 | 0.497 | no binding (tested: 1000 nM) | no binding | no binding |  |  |  |  |  |  |  |  |  |  | B1
71.5 |  |  | 17.4 | no binding (tested: 1000 nM) |  | no binding | no binding (tested: 1000 nM) |  |  |  |  |  |  |  |  |  | B2
 |  |  |  |  | no binding |  |  | no binding | no binding (tested: 1000 nM) | 460 | 374 | 508 | no binding (tested: 100 nM) | 67.2 | no binding (tested: 1000 nM) | no binding | B3

From patent US20230012273A1 (Boehringer Ingelheim, published 2023)
